This experiment has as its target IGF-IR on cells (HT29, NCI H322M human tumor cells; 3T3 cells transfected with IGF-IR) (human) (UniProt P08069). Briefly: cell-based or functional assay.

As for αIR3 (antibody), the Akt/PKB phosphorylation in the absence of IGF-I (Western blot) was greater than 5 nM.
